The record followed here is publication PMC7144518, “Tumor-derived soluble CD155 inhibits DNAM-1–mediated antitumor activity of natural killer cells” (The Journal of Experimental Medicine, 2020).

For assay [1], the target named is T1, extracellular portion of mouse CD155 tagged with His protein at the C terminus (mouse).
T1 chain: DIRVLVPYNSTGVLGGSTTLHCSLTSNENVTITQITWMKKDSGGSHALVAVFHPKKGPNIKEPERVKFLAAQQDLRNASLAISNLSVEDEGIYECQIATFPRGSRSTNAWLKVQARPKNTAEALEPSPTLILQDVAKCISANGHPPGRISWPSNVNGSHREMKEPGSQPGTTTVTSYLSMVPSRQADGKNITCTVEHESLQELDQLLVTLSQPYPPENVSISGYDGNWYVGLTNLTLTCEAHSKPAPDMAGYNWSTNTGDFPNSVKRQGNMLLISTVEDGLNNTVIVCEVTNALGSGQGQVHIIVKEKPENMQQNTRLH
In words: BLI.

The target in assay [2] is T2, extracellular portion of human CD155 tagged with His protein at the C terminus (human, UniProt P15151 21-343).
T2 chain: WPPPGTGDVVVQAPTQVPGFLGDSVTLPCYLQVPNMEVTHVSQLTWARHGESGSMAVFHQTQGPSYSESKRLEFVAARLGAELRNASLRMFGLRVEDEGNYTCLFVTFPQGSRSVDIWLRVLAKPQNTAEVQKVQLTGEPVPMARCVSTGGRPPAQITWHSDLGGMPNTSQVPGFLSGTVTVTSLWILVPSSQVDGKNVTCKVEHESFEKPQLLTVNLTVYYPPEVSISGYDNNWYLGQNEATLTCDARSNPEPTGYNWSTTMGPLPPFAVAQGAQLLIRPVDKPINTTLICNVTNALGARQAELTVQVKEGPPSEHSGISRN
In words: BLI. A general note: BLI is a label-free optical method that tracks binding on a fibre tip over time.

Assay [3] deals with T3, extracellular portion of human CD155 tagged with His protein at the C terminus (human, UniProt P15151 21-343).
T3 construct: human CD155 (poliovirus receptor, nectin-like protein-5), extracellular portion; R&D Systems"); also called sCD155-His; human His-tagged sCD155; source: bought: R&D Systems; not shown: His, C-terminal, kept
T3 sequence (looked up): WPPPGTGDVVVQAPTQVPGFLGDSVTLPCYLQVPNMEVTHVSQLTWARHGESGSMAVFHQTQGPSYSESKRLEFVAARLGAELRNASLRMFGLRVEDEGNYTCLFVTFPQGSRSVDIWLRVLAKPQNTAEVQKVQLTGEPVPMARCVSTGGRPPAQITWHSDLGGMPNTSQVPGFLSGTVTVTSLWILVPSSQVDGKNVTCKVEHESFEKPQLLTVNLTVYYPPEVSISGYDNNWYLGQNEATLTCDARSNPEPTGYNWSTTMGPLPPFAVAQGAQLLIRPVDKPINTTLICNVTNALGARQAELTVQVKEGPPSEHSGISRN
In words: BLI; His-tagged recombinant CD155 (20 µg/ml) loaded on a Ni-NTA biosensor; Fc fusion proteins as analytes at three concentrations; kinetics buffer; association 120 s, dissociation 120 s; global mode of BLItz. The following applies: both partners purified.

Usually Kd stands for the concentration at which binding is half-saturated.

B1: mouse DNAM-1 Fc fusion protein (Fc fusion)
chain: EETLWDTTVRLSETMTLECVYPLTHNLTQVEWTKNTGTKTVSIAVYNPNHNMHIESNYLHRVHFLNSTVGFRNMSLSFYNASEADIGIYSCLFHAFPNGPWEKKIKVVWSDSFEIAAPSDSYLSAEPGQDVTLTCQLPRTWPVQQVIWEKVQPHQVDILASCNLSQETRYTSKYLRQTRSNCSQGSMKSILIIPNAMAADSGLYRCRSEAITGKNKSFVIRLIITDGGTNKHFILP
B1 showed a Kd in assay [1] of 8.83 nM.

B2: mouse TIGIT Fc fusion protein (Fc fusion)
chain: TIDTKRNISAEEGGSVILQCHFSSDTAEVTQVDWKQQDQLLAIYSVDLGWHVASVFSDRVVPGPSLGLTFQSLTMNDTGEYFCTYHTYPGGIYKGRIFLKVQESSDDRNGLAQFQTAPLG
B2: the affinity in assay [1], expressed as Kd, was 22.4 nM.

B3: human TIGIT Fc fusion protein (Fc fusion, UniProt Q495A1 22-141, looked up)
chain: MMTGTIETTGNISAEKGGSIILQCHLSSTTAQVTQVNWEQQDQLLAICNADLGWHISPSFKDRVAPGPGLGLTLQSLTVNDTGEYFCIYHTYPDGTYTGRIFLEVLESSVAEHGARFQIP
notes: human TIGIT, extracellular portion; source: bought: R&D Systems
In assay [2], B3 displayed a Kd of 15.2 nM. Further, in assay [3], the binding result was “binds”.

B4: mouse CD96 Fc fusion protein (Fc fusion)
chain: VWEELFNVGDDVYALPGSDINLTCQTKEKNFLVQMQWSKVTDKNDMIALYHPQYGLYCGQEHACESQVAATETEKGVTNWTLYLRNISSALGGKYECIFTLYPEGIKTTVYNLIVEPYTQDEHNYTIEIETNRTLEIPCFQNTSSEIPPRFTFSWLVEKDGVEEVLFTHHHHVNNSTSFKGRIRLGGDYRLHLSPVQIQDDGRTFSCHLTVNPLKAWKMSTTVKVFAKPEILMTVENSTMDVLGERVFTCLLKNVFPKANITWFIDGRFLQGNEEGIYITNEEKNCSSGFWELKSVLTRMHSGPSQSNNMTAWCMALSPGPRNKMWNTSSQPITVSFDSVIAPTKHLPTVTGSTLGTQPFSDAGVSPTGYLATPSVTIVDENGLTPDATPQTSNSSMTTKDGNYLEASSGTDAKNSSRAAASSKSGSWPFPFTSPPEWHSLPGTSTGPQEPDSPVSWIPSEVHTSAPLDASLAPHDTIISTTTEFPNVLTTANGTTKIDHGPITSIIVNQPSDGM
The molecule B4 yielded an equilibrium dissociation constant (Kd) in assay [1] of 29.7 nM.

B5: human DNAM-1 Fc fusion protein (Fc fusion, UniProt Q15762 19-254, looked up)
chain: EEVLWHTSVPFAENMSLECVYPSMGILTQVEWFKIGTQQDSIAIFSPTHGMVIRKPYAERVYFLNSTMASNNMTLFFRNASEDDVGYYSCSLYTYPQGTWQKVIQVVQSDSFEAAVPSNSHIVSEPGKNVTLTCQPQMTWPVQAVRWEKIQPRQIDLLTYCNLVHGRNFTSKFPRQIVSNCSHGRWSVIVIPDVTVSDSGLYRCYLQASAGENETFVMRLTVAEGKTDNQYTLFVA
notes: human DNAM-1 (DNAX accessory molecule 1, CD226), extracellular portion; source: bought: R&D Systems
Consider B5, for which the dissociation constant (Kd) in assay [2] is 3.56 nM. Moreover, the binding result in assay [3] is given as “binds”.
